Earlier results in article PMC3079273.
Read-outs that look alike come from different tables or passages of the source. Blank lines part the entries; values can stand above or below the substance they belong to.

Key:
[1] = target: nitrate reductase (Arabidopsis thaliana) (UniProt P11035)
[2] = target: Glu1261 (UniProt position 1261, SKAVGEPPLFL); test: kinetics; conditions: free oxidized enzyme reacting with free substrate (xanthine)
[3] = target: nitrate reductase (Arabidopsis thaliana) (UniProt P11035); remark: listed apart in the source

Sequence of nitrate reductase (Arabidopsis thaliana) (P11035 whole entry): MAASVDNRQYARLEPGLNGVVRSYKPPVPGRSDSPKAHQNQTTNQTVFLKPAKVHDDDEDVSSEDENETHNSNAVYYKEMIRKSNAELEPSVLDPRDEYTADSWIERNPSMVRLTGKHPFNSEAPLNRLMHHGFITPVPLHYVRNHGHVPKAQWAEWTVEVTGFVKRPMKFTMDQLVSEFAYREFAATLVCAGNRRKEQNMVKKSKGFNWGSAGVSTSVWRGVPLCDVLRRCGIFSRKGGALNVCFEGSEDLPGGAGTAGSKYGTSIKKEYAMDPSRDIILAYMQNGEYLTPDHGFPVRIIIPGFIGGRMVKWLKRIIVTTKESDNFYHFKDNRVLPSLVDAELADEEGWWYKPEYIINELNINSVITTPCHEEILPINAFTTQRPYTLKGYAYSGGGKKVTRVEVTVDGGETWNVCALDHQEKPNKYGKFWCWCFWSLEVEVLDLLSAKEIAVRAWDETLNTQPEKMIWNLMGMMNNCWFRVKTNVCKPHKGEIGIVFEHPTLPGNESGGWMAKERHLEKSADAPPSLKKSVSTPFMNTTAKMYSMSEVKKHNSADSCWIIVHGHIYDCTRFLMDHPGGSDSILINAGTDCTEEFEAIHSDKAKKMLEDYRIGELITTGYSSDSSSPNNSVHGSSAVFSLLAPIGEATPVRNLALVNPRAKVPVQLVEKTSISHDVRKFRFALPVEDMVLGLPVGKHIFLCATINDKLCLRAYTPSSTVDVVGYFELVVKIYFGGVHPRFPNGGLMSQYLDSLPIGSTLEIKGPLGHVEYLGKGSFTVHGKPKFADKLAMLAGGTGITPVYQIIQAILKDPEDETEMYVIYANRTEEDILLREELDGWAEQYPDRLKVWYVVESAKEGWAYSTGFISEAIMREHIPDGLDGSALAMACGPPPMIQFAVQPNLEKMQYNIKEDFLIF
Sequence of 14-3-3 omega (Q01525 whole entry): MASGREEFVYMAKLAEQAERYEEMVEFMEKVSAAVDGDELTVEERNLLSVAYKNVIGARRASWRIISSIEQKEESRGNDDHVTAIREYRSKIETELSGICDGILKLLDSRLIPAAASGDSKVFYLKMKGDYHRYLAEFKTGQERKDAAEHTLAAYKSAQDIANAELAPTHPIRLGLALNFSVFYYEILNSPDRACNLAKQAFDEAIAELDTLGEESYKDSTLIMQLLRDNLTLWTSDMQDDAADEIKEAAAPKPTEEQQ
Sequence of 14-3-3 lambda (P48349 whole entry): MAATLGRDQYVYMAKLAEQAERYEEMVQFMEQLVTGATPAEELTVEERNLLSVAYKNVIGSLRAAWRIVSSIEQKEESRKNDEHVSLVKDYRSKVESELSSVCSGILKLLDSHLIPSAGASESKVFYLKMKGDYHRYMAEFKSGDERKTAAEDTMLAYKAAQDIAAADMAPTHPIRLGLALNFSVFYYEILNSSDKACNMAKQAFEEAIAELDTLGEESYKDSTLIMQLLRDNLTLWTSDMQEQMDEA

- Ki [1]: 60 nM
Substance: 14-3-3 omega (from UniProt Q01525)

Substance: Xanthine oxidoreductase (xanthine oxidase / xanthine dehydrogenase) (Bos taurus)
- pKa [2]: 6.6

- Ki [3]: 80 nM
Substance: 14-3-3 lambda (from UniProt P48349)
